How the values were obtained:
MBP-FUS-His6 S439E = MBP-FUS-His6 S439E (UniProt P35637 1-526, S439E); assay: EMSA; 5 mM MgCl2, 0.1 mg/ml yeast tRNA; 5 nM RNA, 0-10 uM protein; 20 mM NaPO4 pH 8, 150 mM NaCl, 5% glycerol, 1 mM DTT, 5 mM MgCl2, 0.5 mg/ml BSA, 0.1 mg/ml yeast tRNA, 1 U/ul RNase inhibitor, 20 min RT; 6% native PAGE in 0.5x TBE; conditions: protein: recombinant; tags: N-terminal MBP, C-terminal His6; hairpin with 3' single-stranded tail
MBP-FUS-His6 S439A = MBP-FUS-His6 S439A (UniProt P35637 1-526, S439A); assay: as above; conditions: protein: recombinant; tags: N-terminal MBP, C-terminal His6; hairpin with 3' single-stranded tail
Sequence of MBP-FUS-His6 S439A (P35637 whole entry S439A): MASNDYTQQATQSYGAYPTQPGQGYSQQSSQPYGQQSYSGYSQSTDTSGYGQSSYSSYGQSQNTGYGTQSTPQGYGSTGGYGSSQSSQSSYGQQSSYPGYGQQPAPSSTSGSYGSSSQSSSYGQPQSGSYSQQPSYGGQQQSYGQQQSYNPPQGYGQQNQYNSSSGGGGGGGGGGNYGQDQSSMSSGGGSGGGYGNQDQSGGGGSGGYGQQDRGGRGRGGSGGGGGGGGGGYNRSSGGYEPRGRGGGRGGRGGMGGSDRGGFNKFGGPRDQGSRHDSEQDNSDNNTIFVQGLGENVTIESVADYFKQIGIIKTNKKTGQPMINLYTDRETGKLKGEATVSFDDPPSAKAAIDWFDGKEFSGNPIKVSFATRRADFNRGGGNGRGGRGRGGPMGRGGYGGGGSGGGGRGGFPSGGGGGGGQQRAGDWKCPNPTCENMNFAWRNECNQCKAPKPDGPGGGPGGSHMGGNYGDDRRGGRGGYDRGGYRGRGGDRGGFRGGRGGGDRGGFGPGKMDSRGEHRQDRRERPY

Sequence of MBP-FUS-His6 S439E (P35637 whole entry S439E): as the sequence (P35637 whole entry S439A) above, with A439E counted along it

B1: SON pre-mRNA stem loop with downstream GGU motif (structured_RNA)
RNA: GGAUCUUUAACUACUCAAGAUACUGAACAUGACAUGGUA
Q: Which results are given for B1?
A: binding result (MBP-FUS-His6 S439E): no binding; binding result (MBP-FUS-His6 S439A): binds
